Test results from patent US20170067069A1 (SYNTHETIC GENOMICS, published 2017).

T1: Skp1-7479 (Nannochloropsis Skp1 protein, genome locus Naga_100005 g56) (Nannochloropsis gaditana)
T1 construct: also called SKP-7479
T1 chain: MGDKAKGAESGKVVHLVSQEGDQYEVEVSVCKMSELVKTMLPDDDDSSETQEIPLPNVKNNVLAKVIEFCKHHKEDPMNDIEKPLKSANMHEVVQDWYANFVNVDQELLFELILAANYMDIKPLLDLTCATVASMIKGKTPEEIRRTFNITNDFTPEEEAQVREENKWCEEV

T2: SKP1-8611 (Nannochloropsis Skp1 protein) (Nannochloropsis gaditana)
T2 construct: also called SKP-8611
T2 chain: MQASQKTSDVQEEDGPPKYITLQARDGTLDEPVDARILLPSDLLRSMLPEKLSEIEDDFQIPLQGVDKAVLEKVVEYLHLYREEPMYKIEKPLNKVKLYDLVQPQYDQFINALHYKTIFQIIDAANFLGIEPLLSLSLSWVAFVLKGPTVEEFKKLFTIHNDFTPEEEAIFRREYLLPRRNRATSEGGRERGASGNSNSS

B1: SGT1 (suppressor of G2 allele of skp1), Nannochloropsis gaditana, genome locus Naga_100120 g12 (other)
chain: MEQAQLAFMDEDYATADELFSAYIATHPDDATALVSRAAVHLKLNQPSQALHDAEAAASLKSDFEVAWYRQGVAAFALEDFSRAKEAFMRGRALLGDRPEPQGRRYDVWLRKTTLELGEHDEQGMTVVAEGGRKELRQEEGAKGIEATVPRSQPSPTHPPSSAPAIPAGHVKFQFYQTTSYVTVTILYKGLREEDANVSVQPRHLKVSVGADGDVLFDRALFETVVPEESTSKIFATKIEVKLRKAMEGLTWPELCALSPGAAASVHTVSAPTPDSHATALPSLAQGPATAPSSKPLRPYASTKDWGAVEKEISKELESEKPEGDEALNTLFRDIYAKGSDETRRAMVKSFQTSGGTVLSTNWEEVGKKDYEKEEERKAPEGMEWRKWGV
notes: also called Nannochloropsis SGT1; gene 1852

Legend:
[1] = target: B1; assay: yeast two-hybrid screen, CRD1-117 bait against Nannochloropsis cDNA prey library; growth and blue color on selective media
Protocol: The prey library was screened for by mating of the library-containing (prey) strain with each individual bait strain (i.e., a strain expressing CRD1-117) according to the Matchmaker™ Gold Yeast Two-Hybrid System User Manual (Clontech). […] Based on these numbers, it is estimated that more than 10 million interactions were tested.
After subtraction of false positives from the other domain hits, one hit remained which was unique to this domain: the gene encoding SGT1 (SEQ ID NO:27) encoded at N. gaditana genome locus Naga_100120 g12; Genbank Accession AZIL01000354.1. This gene is commonly referred to as “suppressor of G2 allele of skp1” because it was discovered in a genetic suppressor screen aimed at suppressing skp1-4, a mutant with defects in yeast kinetochore function (Hieter et al. 1999 Nature 402:362-363). SGT1 is an essential component of the yeast kinetochore assembly pathway and has been associated to a number of different biological roles in different organisms. Furthermore, mammalian SGT1 is known to interact with an Hsp90 chaperone and melusin, the human homolog of CHORD-3266. Similarly, the Arabidopsis CHORD-3266 homolog, RAR1, is also known to bind Arabidopsis SGT1 (Takahashi et al. (2003) PNAS USA 100:11777-11782). […]

[2] = target: T1, Skp1-7479 (Nannochloropsis Skp1 …); assay: direct yeast two-hybrid assay
Excerpt: (§1) In order to determine whether SGT1 (SEQ ID NO:27) and Skp1 were members of the same pathway, we tested whether Nannochloropsis SGT1 was capable of binding to Nannochloropsis Skp1 by Y2H. Two different Skp1 proteins were identified in Nannochloropsis, SKP1-8611 (polynucleotide SEQ ID NO:9 and polypeptide SEQ ID NO:28) and Skp1-7479 (SEQ ID NO:29 encoded at N. gaditana genome locus Naga_100005 g56, Genbank Accession AZIL01000936). Protein coding sequences were amplified using sequence specific primers for SGT1 (SEQ ID NO:30 and SEQ ID NO:31), SKP-8611 (SEQ ID NO:32 and SEQ ID NO:33), and SKP-7479 (SEQ ID NO:34 and SEQ ID NO:35) and cloned into the prey and bait vectors as described above.

[3] = target: T2, SKP1-8611 (Nannochloropsis Skp1 protein); assay: direct yeast two-hybrid assay
Excerpt: as §1

Row | binding result [1] | binding result [2] | binding result [3] | Binder
1 | binds |  |  | CRD1-117 (fragment of CHORD-3266 protein, amino acids 1-117) (other, Used as bait in the yeast two-hybrid screen, cloned into bait vector pGBKT7 (Clontech); also called CHORD domain fragment 1-117) MKLYVHYEEAGQDEKALTLKLTLPKSWAEQPLLQVLELFIESYNKKKTGLPPLDKDFVHMEKAGGVILPVGNIVSDMLSDRDDLYIRSGPGPARGKIAHLSSPPNAHASSESSTGLL
2 |  | binds | binds | B1
